Experimental data published in article PMC7172368 (Antiviral Research, 2007).

Target: the molecule itself
Test: native gel or EMSA

B1: recombinant porcine ficolin α with C-terminal V5 and 6 x His tags (natural protein)
chain: not shown
B1: binds.
